Results as given in the supplement of paper PMC12042874.
± gives the uncertainty stated by the source.

Assay: amyloid nucleation score (Sup35N fusion, yeast selection) (log enrichment); library NNK1; higher = more nucleation; inactive = no reads after selection
How it was run: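 The nucleation score, computed with DiMSum, is the log enrichment of output over input reads, centred on the mode score of non-aggregating sequences. Sequences with under 100 input reads were dropped. Reads were generated by Illumina sequencing of plasmid inserts from psi-negative yeast with Sup35N fused to peptides of 20 random codons, induced with 100 μM copper sulfate for 24 hours and grown 7 days at 30°C on medium lacking adenine and uracil.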

NKFGQSAGYLSTFACAVGIG and GLLVGLQQCYNYGWKGSDCN are within error of each other in amyloid nucleation score: 0.595 ± 0.39 for the first, 0.504 ± 0.75 for the second.

Going from RLLGLHWIT to GYKMAYNFCDEKEGLNWRVG, the amyloid nucleation score falls from 1.5 ± 0.54 to -0.257 ± 0.52.

WLMAKGRYLSAFTVSFIRSY and HVLWGIVLVVIFFW are within error of each other in amyloid nucleation score: -1.28 ± 1.8 for the first, -0.151 ± 0.29 for the second.

First: FRYYRF
Second: MVTGTSHPLQYMLSGSSTKY
The amyloid nucleation score of the first is higher: 0.522 ± 0.45 for the first, -0.436 ± 0.45 for the second.

CTAYYMLGGGRNLNHPLMWV and SVSGLYQHRSF are within error of each other in amyloid nucleation score: 0.497 ± 0.61 for the first, 0.184 ± 0.35 for the second.

PRGVFYCLCYLVTCLAEFYE and VRPNGVYSFRWTYGFPIQRA are within error of each other in amyloid nucleation score: -0.311 ± 0.36 for the first, 0.321 ± 0.6 for the second.

Going from VKGVD to VCLVDSSWGW, the amyloid nucleation score rises from 1.19 ± 0.64 to 3.86 ± 0.085.

Compared with PCFRTYDCAISNLAVASRCR, RWFRNAIGGIL is lower in amyloid nucleation score: 1.03 ± 0.37 for the first, -0.586 ± 0.59 for the second.

GLRDACFSVLPVYLWVSNGD and SSSGMVDSVSYDLRGRVGLR are within error of each other in amyloid nucleation score: 0.281 ± 0.55 for the first, 0.29 ± 0.3 for the second.

First: EKLTKTYGTRFNKVKLFL
Second: EFQMLEFYRANLPSKSQNTL
The amyloid nucleation score of the first is higher: 0.294 ± 0.41 for the first, -0.777 ± 0.43 for the second.

Compared with TCRESMRYVDNGLAFYSWFY, YLRKIRVLNMGAAAEKALLG is higher in amyloid nucleation score: -0.983 ± 0.56 for the first, 0.641 ± 0.68 for the second.

Going from LSIRYWCYNLRLVQAHCFRV to YKVNNFKTFSLWNMFLDSNC, the amyloid nucleation score rises from -0.657 ± 0.56 to 4.47 ± 0.064.

Compared with HSNIRMCKAECSRGELH, FVHPLMYSDS is lower in amyloid nucleation score: 0.812 ± 0.61 for the first, -0.386 ± 0.43 for the second.

First: LAELWECDKSLKSPGAYWVL
Second: SLSKLAICMWSYIFNMSYFC
The amyloid nucleation score of the first is higher: 1.49 ± 0.73 for the first, -0.139 ± 0.81 for the second.

First: RSLCHAQRFGWMC
Second: VCKVRRL
The amyloid nucleation score of the first is lower: -1.7 ± 1 for the first, 0.461 ± 0.63 for the second.

SGKNRYIVSSCSWLWAREDL and AQQLLIGDDDLDTAVEFDDM are within error of each other in amyloid nucleation score: 0.424 ± 1 for the first, -0.509 ± 0.86 for the second.

Going from TEEKSRVRLFNRRHRGISRG to NLAGI, the amyloid nucleation score falls from 3.95 ± 0.091 to 0.716 ± 0.88.

Going from WLTVITADSMAEGRQACRLP to INGRTGILRRVGN, the amyloid nucleation score falls from 0.132 ± 0.46 to -1.28 ± 0.75.

Compared with LITNP, EGRYTRDFKCRFSSERHSPS is lower in amyloid nucleation score: 2.86 ± 0.12 for the first, 0.014 ± 0.47 for the second.

First: ECVNLLR
Second: SYYSGFRMATVSHRIRWRSM
The amyloid nucleation score of the first is lower: 0.471 ± 0.25 for the first, 1.88 ± 0.7 for the second.

RELLGGVRNRLVYR and ILSICLSLVFRPSVMIEYLR are within error of each other in amyloid nucleation score: -0.192 ± 0.23 for the first, 0.191 ± 0.26 for the second.

QTFMHSCEFRVN and QNYSLNWSITGLVRLLSRIC are within error of each other in amyloid nucleation score: -0.347 ± 0.66 for the first, -0.73 ± 0.55 for the second.

AHTLSYVFWLYHMDQCVLFV and CHSHDVCRGMLT are within error of each other in amyloid nucleation score: -0.127 ± 1.4 for the first, -0.135 ± 0.38 for the second.

Compared with AKMIDR, VFLYFIVLNANHCFIMPEHF is higher in amyloid nucleation score: 0.399 ± 0.5 for the first, 3.42 ± 0.089 for the second.

CSDFITLSMFV and SNRALMADLKERNVINTPIN are within error of each other in amyloid nucleation score: 0.99 ± 0.66 for the first, -0.385 ± 1.9 for the second.

First: QGIAACSAGSLDYVYGRWKG
Second: TNSFYYGSVSTCYSRCNCKF
The amyloid nucleation score of the first is lower: 3.91 ± 0.09 for the first, 7.362 ± 0.048 for the second.

Going from RWLPPLRVRIRDHTHIITDK to QWKGSFSSV, the amyloid nucleation score falls from 2.22 ± 0.17 to -0.873 ± 1.1.

WITYHEFWRLTKGCLSFTDL and LVFVVMYGSRPSLKWWGITC are within error of each other in amyloid nucleation score: 0.023 ± 0.55 for the first, 0.473 ± 0.79 for the second.

First: YYGYVLFQGFSM
Second: CAKLCKASHSVFIDDRRCVR
The amyloid nucleation score of the first is higher: 1.82 ± 0.19 for the first, -1.02 ± 2.4 for the second.

PHPVVLASLSIDWVPRCSES and ISRADVWVWFLLSMSRREYF are within error of each other in amyloid nucleation score: -0.179 ± 1 for the first, 0.268 ± 0.55 for the second.

CLGDTWWNMNKSGTEVVCPV and LVFPWIISFCQRMWMLYQRY are within error of each other in amyloid nucleation score: 0.858 ± 1.1 for the first, 0.499 ± 0.35 for the second.

First: NSCRCYFLLGELDLNAFNSV
Second: WVQGRRTFLVGWRGSQRGPI
The amyloid nucleation score of the first is higher: 1.74 ± 0.55 for the first, -0.995 ± 0.81 for the second.

VTFVIYNRDNSAEYGVVFC and CWASIEVLRRSDYGGFCHSV are within error of each other in amyloid nucleation score: -0.46 ± 0.71 for the first, 0.826 ± 0.6 for the second.

WGMCFAVPNISTGLNNYTMP and LQNETLSMSMRLLMAYFIKL are within error of each other in amyloid nucleation score: -0.234 ± 0.64 for the first, 0.13 ± 1.2 for the second.

KSCDSESFYGDTRSFHTDSV and FSSYPLGFRNRRDTVDMTIV are within error of each other in amyloid nucleation score: -1.5 ± 1.3 for the first, 0.018 ± 0.38 for the second.

SLSRNYHPFRAKIFLCLGRN and RGCSFFWCPLCRGYGGCLCC are within error of each other in amyloid nucleation score: 0.097 ± 0.82 for the first, 0.482 ± 0.74 for the second.

Going from QCIPLLAGSYCAQML to FWGNGQRVNSNIQRDVKWDA, the amyloid nucleation score falls from 0.914 ± 0.14 to -0.199 ± 0.45.

YDIGFVI and STFIVGMRYVPLSKGR are within error of each other in amyloid nucleation score: -0.067 ± 0.28 for the first, -0.513 ± 1 for the second.

RDAFYRGRTRFNQRRYMYRR and EMRLCRPCREYLLKSPT are within error of each other in amyloid nucleation score: -0.335 ± 0.53 for the first, 0.31 ± 0.37 for the second.

For GNIFWRMLWFVGYEKGSLLF, the amyloid nucleation score was -0.022 ± 0.36.

In the case of VSTCTL, the amyloid nucleation score is reported as “inactive”.
In the case of DWFLTLAKVYSLNGQVFRMR, the amyloid nucleation score is reported as “inactive”.
For FSACLSNIYD, the amyloid nucleation score was “inactive”.
For YVSAVGLWVVLYYMMRMCAS, the amyloid nucleation score was “inactive”.
In the case of YSKIRNKSRFRNLSASFQRC, the amyloid nucleation score is reported as “inactive”.
In the case of RLMNRFMPKSLLLLLPVFVR, the amyloid nucleation score is reported as “inactive”.
